From patent publication WO2023191079A1 (dated 2023)

Target: T1, SpyCatcher-GOx (fusion protein with SpyCatcher and glucose oxidase in this order from the N-terminus)
T1 construct: also called SpyCatcher-fused glucose oxidase; SpyCatcher fusion GOx
Assay: 5 uM each mixed, overnight at 4 C, SDS-PAGE

B1: scFv-ST (anti-CRP scFv antibody with SpyTag added) (scFv)
scFv: HMASQVQLQQSGAELVKPGASVKLSCTASGFNIKDYYMHWVKQRTEQGLEWIGRIDPEDGETKYAPKFQGKATITADTSSNTAYLQLSSLTSEDTAVYYCARGYYGSEAMDYWGQGTSLTVSSGGGGSGGGGSGGGGSTGSIVMTQSHKFMSTSVGDRVSITCKASQDVNTAVAWYQQKPGQSPKLLIYWASTRHTGVPDRFTGSGFGTDYTLTISSVQAEDLALYYCQQHYSTPWTFGGGTKLEIKRADAAPKLAAAGSGAHIVMVDAYKPTKAEQKLISEEDLNLGGGMRGSHHHHHH
binding result: binds
